Data from PMC10629583 (2023).
Positions count from the first letter of the chain named. In names and notes the source's numbering stands. Where no end group is shown, it is not given here. [ ]: non-standard residue; d: D form. The star is where a group is joined. FITC = O=C1OC2(c3ccc(O)cc3Oc3cc(O)ccc32)c2ccc(NC(=S)*)cc21; pT = C[C@@H](OP(=O)(O)O)[C@H](N)C(=O)O; Ahx = NCCCCCC(=O)O

Experiments:
Experiment in all cases: FP
[1] = molecular target: T1, FITC-GPMQTSpTPKNG (synthetic construct)
T1 chain: {FITC}-GPMQTS[pT]PKNG

[2] = molecular target: PBD1 (residues 345–603) F559D (human, UniProt P53350 345-603, F559D)
[3] = molecular target: PBD1 (residues 345–603) F559E (human, UniProt P53350 345-603, F559E)
[4] = molecular target: PBD1 (residues 345–603) F559K (human, UniProt P53350 345-603, F559K)
[5] = molecular target: PBD1 (residues 345–603) F559R (human, UniProt P53350 345-603, F559R)
[6] = molecular target: Plk1 polo-box domain, PBD1 (residues 345–603) WT (human, UniProt P53350 345-603)
[7] = molecular target: T2, FITC-GPLATSpTPKNG (synthetic construct)
T2 chain: {FITC}-GPLATS[pT]PKNG

Chain of PBD1 (residues 345–603) F559R (P53350 345-603 F559R): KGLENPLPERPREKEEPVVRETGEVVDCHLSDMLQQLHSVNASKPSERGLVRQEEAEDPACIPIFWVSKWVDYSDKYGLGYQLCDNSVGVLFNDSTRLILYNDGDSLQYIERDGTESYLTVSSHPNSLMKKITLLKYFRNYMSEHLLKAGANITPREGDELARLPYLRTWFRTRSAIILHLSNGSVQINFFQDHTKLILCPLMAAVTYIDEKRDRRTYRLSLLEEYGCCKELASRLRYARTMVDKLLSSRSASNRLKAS
Chain of PBD1 (residues 345–603) F559D (P53350 345-603 F559D): as the sequence (P53350 345-603 F559R) above, with R215D counted along it
Chain of PBD1 (residues 345–603) F559E (P53350 345-603 F559E): as the sequence (P53350 345-603 F559R) above, with R215E counted along it
Chain of PBD1 (residues 345–603) F559K (P53350 345-603 F559K): as the sequence (P53350 345-603 F559R) above, with R215K counted along it
Chain of Plk1 polo-box domain, PBD1 (residues 345–603) WT (P53350 345-603): as the sequence (P53350 345-603 F559R) above, with R215F counted along it

B1: PBD2 S652F (protein)
chain: HLSSPAKNFFKKAAAALFGGKKDKARYIDTHNRVSKEDEDIYKLRHDLKKTSITQQPSKHRTDEELQPPTTTVARSGTPAVENKQQIGDAIRMIVRGTLGSCSSSSECLEDSTMGSVADTVARVLRGCLENMPEADCIPKEQLSTSFQWVTKWVDYSNKYGFGYQLSDHTVGVLFNNGAHMSLLPDKKTVHYYAELGQCSVFPATDAPEQFISQVTVLKYFSHYMEENLMDGGDLPSVTDIRRPRLYLLQWLKSDKALMMLFNDGTFQVNFYHDHTKIIICSQNEEYLLTYINEDRIFTTFRLTTLLMSGCSSELKNRMEYALNMLLQRCN
B1 was tested, and the Kd [1] was 62.7 nM.

B2: PBD2 (protein)
chain: B1 chain with F298S
Work on B2 yielded a Kd [1] of 80.2 nM.

B3: FITC-Ahx-DPPLHSpTAI-NH2 (peptide)
peptide: {FITC-Ahx}-DPPLHS[pT]AI-NH2
SMILES: CC[C@H](C)[C@H](NC(=O)[C@H](C)NC(=O)[C@@H](NC(=O)[C@H](CO)NC(=O)[C@H](Cc1c[nH]cn1)NC(=O)[C@H](CC(C)C)NC(=O)[C@@H]1CCCN1C(=O)[C@@H]1CCCN1C(=O)[C@H](CC(=O)O)NC(=O)CCCCCNC(=S)Nc1ccc2c(c1)C(=O)OC21c2ccc(O)cc2Oc2cc(O)ccc21)[C@@H](C)OP(=O)(O)O)C(N)=O
For B3, the Kd [2] was 28.1 nM, the Kd [3] was 124 nM and the Kd [4] was 704 nM. For the same binder, the Kd [5] was 460 nM and the Kd [6] was 16.8 nM.

B4: MBP-PBD3 A612F (protein)
chain: TPPNPARSLFAKVTKSLFGRKKKSKNHAQERDEVSGLVSGLMRTSVGHQDARPEAPAASGPAPVSLVETAPEDSSPRGTLASSGDGFEEGLTVATVVESALCALRNCIAFMPPAEQNPAPLAQPEPLVWVSKWVDYSNKFGFGYQLSSRRVAVLFNDGTHMALSANRKTVHYNPTSTKHFSFSVGAVPRALQPQLGILRYFASYMEQHLMKGGDLPSVEEVEVPAPPLLLQWVKTDQALLMLFSDGTVQVNFYGDHTKLILSGWEPLLVTFVARNRSFCTYLASHLRQLGCSPDLRQRLRYALRLLRDRSPA
For B4, the Kd [7] was 85.4 nM.

B5: MBP-PBD3 (protein)
chain: B4 chain with F278A
For B5, the Kd [7] was 62.4 nM.
